Data on one substance can be found in patent US20050244819.

In the series the test system is beta-Gal^PR, engineered E. coli beta-galactosidase with the HIV p6/PR cleavage site decapeptide inse [β-galactosidase: P00722].

As for “TF-PR^D25N, HIV protease precursor with the D25N mutation at the catalytic residue Asp25”, the β-galactosidase activity was determined as 0.178 µmol/min/mg.
